The record followed here is patent publication US20230012273A1 (Boehringer Ingelheim, published 2023).

Broadly, the IC50 is the concentration that gives 50% inhibition. For orientation: EC50 means the concentration at which the effect is half-maximal.

The target in test [1] is T1, full-length human SIRPαV1 (NP_542970.1) on cells (human, UniProt P78324 31-504).
T1 construct: one molecule for CHO-K1 and Expi-CHO transfectants (NP_542970.1) and for endogenous V1 on U-937 cells and on CD14+ monocytes of V1/V1 donors; also called CHO-hSIRPαV1; αV1 WT
Nature of the test: flow cytometry, competition with CD47 tetramer, monocytes V1V1. The protocol: (§1) Cells are washed, fixed, and analyzed by flow cytometry. Median fluorescent intensity of CD14+gated population is determined and used as a measure of CD47 binding.
Background: A flow cytometer gives signals particle by particle.

The target of test [2] is T1, full-length human SIRPαV1 (NP_542970.1) …. Description: flow cytometry, CD14+ monocytes V1V1. On the procedure:
(§2) Antibody binding to primary human cells expressing SIRPα is evaluated by flow cytometry. Human peripheral blood mononuclear cells (PBMCs) from donors genotyped as homozygous for the SIRPα V1 allele, V2 allele, or heterozygous for both alleles are blocked with donkey IgG and incubated on ice with increasing concentrations of antibody for 60 minutes, washed and stained with AF647-conjugated donkey F(ab′)₂ anti-human IgG secondary reagent. […] Cells are washed, fixed, and analyzed by flow cytometry. Median fluorescent intensity of the CD14+ population was determined and used as a measure of antibody binding.

For test [3], the target named is ED-tagged human SIRPα V1 receptor on Jurkat signaling reporter cells (human, UniProt P78324 31-504). Description: cell-based or functional assay.
Test [4] addresses T2, full-length human SIRPαV2 (CAA71403.1) on cells (human, UniProt P78324 31-504).
T2 construct: one molecule for CHO-K1 and Expi-CHO transfectants (CAA71403.1) and for endogenous V2 on THP-1 cells and on CD14+ monocytes of V2/V2 donors; also called CHO-hSIRPαV2; αV2 WT
Nature of the test: flow cytometry, CD14+ monocytes V2V2. On the procedure:
as §2

Test [5] has as its target T3, full-length human SIRPαV2 D→E on Expi-CHO cells (human, UniProt P78324 31-504).
T3 construct: the entry already carries the change (SPDT to SPET)
Nature of the test: flow cytometry, Expi-CHO cells. On the procedure: (§3) Expi-CHO parental cells are transduced with lentiviruses containing either full-length wild-type human SIRPαV2 allele (CAA71403.1) or full-length human SIRPαV2 with amino acid point mutations (Table 58) and sorted to achieve matching expression levels. These cells are blocked with donkey IgG and incubated on ice with increasing concentrations of antibodies for 60 minutes, washed and stained with AF647-conjugated donkey F(ab′)₂ anti-human IgG antibodies. Stained cells are washed, fixed, and analyzed by flow cytometry. Median fluorescent intensity is determined and used as a measure of antibody binding.

The target in test [6] is T4, full-length human SIRPαV2 E→N on Expi-CHO cells (human, UniProt P78324 31-504).
T4 construct: the entry already carries the change (TKRE to TKRN)
Description: flow cytometry, Expi-CHO cells. On the procedure: as §3

The target in test [7] is T2, full-length human SIRPαV2 (CAA71403.1) …. Nature of the test: flow cytometry, Expi-CHO cells. The protocol: as §3
Test [8] deals with T5, full-length human SIRPαV1 N→E on Expi-CHO cells (human, UniProt P78324 31-504).
T5 construct: the entry already carries the change (TKRN to TKRE)
Nature of the test: flow cytometry, Expi-CHO cells. The protocol:
as §3, with “SIRPαV1” for “SIRPαV2”, “(NP_542970.1)” for “(CAA71403.1)”, “56)” for “58)”

For test [9], the target named is T6, full-length human SIRPαV1 D→E on Expi-CHO cells (human, UniProt P78324 31-504).
T6 construct: the entry already carries the change (PDDV to PEDV)
Nature of the test: flow cytometry, Expi-CHO cells. On the procedure:
as §3, with “SIRPαV1” for “SIRPαV2”, “(NP_542970.1)” for “(CAA71403.1)”, “56)” for “58)”

The target of test [10] is T1, full-length human SIRPαV1 (NP_542970.1) …. Nature of the test: flow cytometry, Expi-CHO cells. On the procedure: as §3, with “SIRPαV1” for “SIRPαV2”, “(NP_542970.1)” for “(CAA71403.1)”, “56)” for “58)”
The target of test [11] is T2, full-length human SIRPαV2 (CAA71403.1) …. Nature of the test: flow cytometry, competition with CD47 tetramer, monocytes V2V2. On the procedure:
as §1

Test [12] has as its target T1, full-length human SIRPαV1 (NP_542970.1) …. Description: flow cytometry, U-937 cells (endogenous V1). On the procedure: Antibody binding to human monocytic cell lines homozygous for the V1-allele (U-937) or the V2-allele (THP-1) of SIRPα is assessed. U-937 or THP-1 cells are blocked with donkey IgG and incubated on ice with increasing concentrations of antibodies for 60 minutes, washed and stained with AF647-conjugated donkey F(ab′)₂ anti-human IgG secondary reagent. Cells are washed, fixed, and analyzed by flow cytometry. Median fluorescent intensity is determined and used as a measure of antibody binding.

The target in test [13] is T7, full-length human SIRPβL H→D on Expi-CHO cells (human, UniProt Q5TFQ8 30-398).
T7 construct: the entry already carries the change (PDHV to PDDV); also called βL WT H→D
Nature of the test: flow cytometry, Expi-CHO cells. The protocol: Expi-CHO parental cells are transduced with lentiviruses containing either full-length wild-type human SIRPβL (Q5TFQ8) or full-length human SIRPβL with a single amino acid point mutation (Table 62) and sorted to achieve matching expression levels. These cells are blocked with donkey IgG and incubated on ice with increasing concentrations of antibodies for 60 minutes, washed and stained with AF647-conjugated donkey F(ab′)₂ anti-human IgG antibodies. Stained cells are washed, fixed, and analyzed by flow cytometry. Median fluorescent intensity is determined and used as a measure of antibody binding.
A single amino acid substitution (H→D) introduced within the loop region maintained, strengthened, or facilitated antibody binding to these cells (FIG. 34B, Table 63).

For test [14], the target named is ED-tagged human SIRPα V2 receptor on Jurkat signaling reporter cells (human, UniProt P78324 31-504). Nature of the test: cell-based or functional assay.
Test [15] concerns the target T8, full-length human SIRPβ1 D→H on Expi-CHO cells (human, UniProt O00241 30-398).
T8 construct: the entry already carries the change (PDDV to PDHV)
Nature of the test: flow cytometry, Expi-CHO cells expressing full-length human SIRPβ1 D→H. The protocol: These cells are blocked with donkey IgG and incubated on ice with increasing concentrations of antibodies for 60 minutes, washed and stained with AF647-conjugated donkey F(ab′)₂ anti-human IgG antibodies. Stained cells are washed, fixed, and analyzed by flow cytometry. Median fluorescent intensity is determined and used as a measure of antibody binding.

B1: Antibody B (antibody, human IgG1, kappa, L234A L235A, V domains shown)
VH: QVQLVQSGAEVKKPGASVKVSCKASGYTFTGNYMHWVRQAPGQGLEWMGWINPNSGGTNYAQKFQGRVTMTRDTSISTAYMELSRLRSDDTAVYYCVSGSGWYENYYYYGMDVWGQGTTVTVSS
VL: DIQMTQSPSSVSASVGDRVTITCRASQGISSWLAWYQQKPGKAPKLLIYAESSLQSGVPSRFSGSGSGTDFTLTISSLQPEDFATYYCQQANSFPLTFGGGTKVEIKR
Consider B1, for which the IC50 in test [1] is 2.55 nM; in test [11], 4.6 nM. In addition, the concentration giving a half-maximal response (EC50) in test [2] was determined as 26.6 nM; in test [4], 21.8 nM; in test [5], 3.7 nM; in [6], 4.1 nM; in test [7], 3.6 nM; in test [8] it was 4.5 nM. The EC50 in [9] amounted to 3.7 nM; in test [10], 3.8 nM; in [12] it was 21.1 nM. Besides, the “Blockade of Cellular CD47-Mediated SIRPα Signaling; IC50” value in [3] was 0.76 nM.

B2: Antibody A (antibody, human IgG1, kappa, L234A L235A)
heavy: not shown
light: DIQMTQSPSSLSASVGDRVTITCRASQDINNYLAWFQQKPGKAPKSLIYTASSLHSGVPSKFSGSGSGTDFTLTISSLQPEDFATYYCQQYVSYPYTFGQGTKLEIKRTVAAPSVFIFPPSDEQLKSGTASVVCLLNNFYPREAKVQWKVDNALQSGNSQESVTEQDSKDSTYSLSSTLTLSKADYEKHKVYACEVTHQGLSSPVTKSFNRGEC
Molecule B2 registered an EC50 in test [13] of 0.5 nM. Further, the “Blockade of Cellular CD47-Mediated SIRPα Signaling; IC50” value in test [3] and in test [14] was 0.04 nM in each case. In addition, the binding result in test [15] is “no binding (tested: about 67 nM)”.

B3: Antibody A10 (antibody, human IgG1, kappa, L234A L235A)
heavy: not shown
light: DIQMTQSPSSLSASVGDRVTITCRASQDINNYLAWFQQKPGKAPKSLIYTASSLHSGVPSKFSGSGSGTDFTLTISSLQPEDFATYYCQQYVSYPYTFGQGTKLEIKRTVAAPSVFIFPPSDEQLKSGTASVVCLLNNFYPREAKVQWKVDNALQSGNSQESVTEQDSKDSTYSLSSTLTLSKADYEKHKVYACEVTHQGLSSPVTKSFNRGEC
Take B3: the concentration for a half-maximal effect (EC50) in test [13] was found to be 0.6 nM. The “Blockade of Cellular CD47-Mediated SIRPα Signaling; IC50” value in test [3] and in [14] was 0.04 nM each time. The binding result in test [15] is listed as “no binding (tested: about 67 nM)”.

B4: Anti-SIRPα antibody KWAR23 (antibody, V domains shown)
VH: EVQLQQSGAELVKPGASVKLSCTASGFNIKDYYIHWVQQRTEQGLEWIGRIDPEDGETKYAPKFQDKATITADTSSNTAYLHLSSLTSEDTAVYYCARWGAYWGQGTLVTVSS
VL: QIVLTQSPAIMSASPGEKVTLTCSASSSVSSSYLYWYQQKPGSSPKLWIYSTSNLASGVPARFSGSGSGTSYSLTISSMEAEDAASYFCHQWSSYPRTFGAGTKLELK
In the case of B4, the half-inhibitory concentration (IC50) in [1] stood at 0.07 nM; in [11] it was 0.11 nM. The EC50 in test [13] amounted to 0.5 nM; in test [2], 0.2 nM; in test [4], 0.1 nM; in test [5] it was 0.2 nM; in test [6] it was 0.2 nM; in test [7] it was 0.2 nM. For the same molecule, the EC50 in [8] came out at 0.5 nM; in [9], 0.2 nM; in test [10], 0.3 nM; in test [12], 0.5 nM.

B5: Antibody E (antibody, human IgG1, kappa, L234A L235A)
heavy: not shown
light: DIVMTQSPLSLPVTPGEPASISCKSSQSLLYSNGYNYLDWYLQRPGQSPQLLIYLGSNRASGVPDRFSGSGSGTDFTLKISRVEAEDVGVFYCMQALQTPLTFGGGTKVEIKRTVAAPSVFIFPPSDEQLKSGTASVVCLLNNFYPREAKVQWKVDNALQSGNSQESVTEQDSKDSTYSLSSTLTLSKADYEKHKVYACEVTHQGLSSPVTKSFNRGEC
The molecule B5 displayed a half-maximal inhibitory concentration (IC50) in test [1] of 0.09 nM. Also, the EC50 in [13] was determined as 0.5 nM; in test [2], 0.4 nM; in test [4], 0.7 nM; in test [5] it was 0.3 nM; in [6], 0.3 nM; in [7], 0.3 nM. Also, the EC50 in test [8] amounted to 0.5 nM; in test [9], 0.4 nM; in test [10], 0.5 nM; in test [12], 0.5 nM. Further, the “Blockade of Cellular CD47-Mediated SIRPα Signaling; IC50” value in [3] is 0.04 nM. In test [14], the “Blockade of Cellular CD47-Mediated SIRPα Signaling; IC50 (* Inhibition plateaus at <100%)” value was found to be 0.04 nM. For the same molecule, in test [15], the binding result was “no binding (tested: about 67 nM)”.

B6: Antibody E22 (antibody, human IgG1, kappa, L234A L235A, V domains shown)
VH: QVQLQESGPGLVKPSETLSLTCTVSGGSIRDYYWSWIRQPPGKGLEWIGFIYYNGRTFYQSSLKSRVTISLDTSKNQFSLKMTSVTAADTAVYYCARVRAYSGIGLDGTDVWGQGTTVTVSS
VL: DIVMTQSPLSLPVTPGEPASISCRSSQSLLYSTGYTYLDWYLQRPGQSPQLLIYGGSSRASGVPDRFSGSGSGTDFTLKISRVEAEDVGVFYCGQALQTPLTFGQGTKVEIKR
For the molecule B6, the 50% inhibitory concentration (IC50) in [1] came to 0.25 nM; in test [11], 0.3 nM. Besides, the EC50 was determined as 0.7 nM in test [13]; 0.8 nM in test [2]; 0.4 nM in [4]; 0.4 nM in test [5]; 0.4 nM in test [6]; 0.4 nM in test [7]. The half-maximal effective concentration (EC50) in test [8] was found to be 0.9 nM; in test [9], 0.7 nM; in test [10] it was 0.8 nM. Moreover, the “Blockade of Cellular CD47-Mediated SIRPα Signaling; IC50” value in [3] was found to be 0.07 nM. Also, the “Blockade of Cellular CD47-Mediated SIRPα Signaling; IC50 (* Inhibition plateaus at <100%)” value in test [14] amounted to 0.07 nM. Also, the binding result in [15] was “no binding (tested: about 67 nM)”.
